The data set has as its target CsrA-His6 (Escherichia coli) (UniProt P69913). Put plainly: EMSA. The conditions noted are these: EMSA: 0.1 nM RNA, 10 mM MgCl2, 100 mM KCl, 32.5 ng yeast RNA, 20 mM DTT, 7.5% glycerol, 4 U SUPERasin, 30 min 37 C (pH not given), footprint: 2 nM RNA. Background: Mobility shift assays separate free from complexed probe on a gel.

Kd data for two substances are collected here from publication PMC10746276.

Chain of CsrA-His6 (Escherichia coli) (P69913 whole entry): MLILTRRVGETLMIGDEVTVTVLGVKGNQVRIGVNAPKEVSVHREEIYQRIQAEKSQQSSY

With “yqjD leader full-length, BS4 mutant (CUGGA to GUGGA)”, the Kd worked out at 25 nM.
In turn, “yqjD leader WT, full-length (yqjC-yqjD intercistronic RNA)” had an equilibrium dissociation constant (Kd) of 8 nM. For the same substance, the Kd (second shifted species at 30 nM CsrA and higher) stood at 9 nM.

In general, Kd refers to the concentration at which binding is half-saturated.
